Assays:
Conditions in all cases: EMSA: 0.1 ng 32P probe, 15 ul, 30 min at 25 C (stated for GadE/RcsBD56E), 6% native PAGE; H-NS: 100-200 ng PCR fragment plus pBR322 digest, 15 min room …
[1] = biological target: T1, Strep-AdiY (Escherichia coli) (UniProt P33234); assay: EMSA
T1 sequence: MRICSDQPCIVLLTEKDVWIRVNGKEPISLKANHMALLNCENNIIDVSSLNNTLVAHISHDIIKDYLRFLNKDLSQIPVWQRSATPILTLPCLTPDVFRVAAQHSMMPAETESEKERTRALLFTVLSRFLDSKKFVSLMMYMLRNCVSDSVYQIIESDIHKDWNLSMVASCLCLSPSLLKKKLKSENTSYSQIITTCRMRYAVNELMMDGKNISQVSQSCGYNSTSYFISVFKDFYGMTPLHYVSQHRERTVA

[2] = biological target: T2, H-NS-His6 (Escherichia coli) (UniProt P0ACF8); assay: competitive EMSA
T2 sequence: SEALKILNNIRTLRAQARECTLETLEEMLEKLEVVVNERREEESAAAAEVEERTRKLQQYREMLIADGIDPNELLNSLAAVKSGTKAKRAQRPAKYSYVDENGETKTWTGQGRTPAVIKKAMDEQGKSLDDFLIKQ

[3] = biological target: T3, HdfR-His6 (Escherichia coli) (UniProt P0A8R9); assay: EMSA
T3 sequence: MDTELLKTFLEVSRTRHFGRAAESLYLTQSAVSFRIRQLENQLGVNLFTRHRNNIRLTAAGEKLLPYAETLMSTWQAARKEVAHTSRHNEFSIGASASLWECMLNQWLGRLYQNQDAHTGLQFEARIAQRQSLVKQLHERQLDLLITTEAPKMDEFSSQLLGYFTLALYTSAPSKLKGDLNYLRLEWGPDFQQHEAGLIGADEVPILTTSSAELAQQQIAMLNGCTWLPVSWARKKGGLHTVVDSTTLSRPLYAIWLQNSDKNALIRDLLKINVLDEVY

[4] = biological target: T4, His6-RcsBD56E;GadE-His6 D56E (Escherichia coli;Escherichia coli) (UniProt P0DMC7+P63204); assay: EMSA
T4 sequence 1: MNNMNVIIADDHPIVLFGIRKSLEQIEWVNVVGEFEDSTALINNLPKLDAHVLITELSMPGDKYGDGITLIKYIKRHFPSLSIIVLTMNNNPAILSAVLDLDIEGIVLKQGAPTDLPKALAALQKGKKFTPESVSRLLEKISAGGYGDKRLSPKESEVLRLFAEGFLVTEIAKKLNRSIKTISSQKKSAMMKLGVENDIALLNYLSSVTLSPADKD
T4 sequence 2: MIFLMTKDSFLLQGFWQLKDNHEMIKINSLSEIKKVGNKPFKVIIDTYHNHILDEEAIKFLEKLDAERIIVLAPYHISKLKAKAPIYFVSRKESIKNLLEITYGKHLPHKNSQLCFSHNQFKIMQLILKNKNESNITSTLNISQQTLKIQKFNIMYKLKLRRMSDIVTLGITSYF

| Sequence | binding [1] | binding [2] | binding [3] | binding [4] |
| --- | --- | --- | --- | --- |
| ATGCCAAAAACGCGTCTAAGAATGCAGTCGATTTAATAAAAATTTCCTAATTGCAGTATCTGATGCATCTGTAACTCATTGTATTGAAATAAAAATATCTGATTTTGATATTTTCCATCAACATGACATATACAGAAAACCAGGTTATAACCTCAGTGTCG (double strand) [hdeABD promoter] | no binding | – | – | – |
| TGGCCTTAGGCCTTTTGAGTATGGCAACGTTTTCATAAAAATTGCTGCAAACAAAAATGTCATACTTTTTGCGCGGCCCCACCCCGCGCTTTTTTTTGCCTGTTATTTATCCTGTAAAAAAATATGTACATGAGAAATTACTATAAAAATTTGTACTATTAGTAAAAC (double strand) [adiY promoter] | – | binds | – | – |
| TCGTTATGCAGCGATATTTTTTGCTGTTCATGATAAATATCGAATGAACGACGAATGAGGATCACCGAGCAGACATGAGTCATGATTATCCCTTATATTTCATACTGCGATTATTTCAATTTCAGTATACTAATGAAATGATGCCAGACTGTTTCTTAGCGCAAAAACTGCCAGATTTGGTAGGACCAAAATTTATCCACAAAGTAGTTTTGCATAACAGTTAATTGATAATAAGTAAATGCAGCACGAATATATTTTCGCACAGCGTATAGCTTA (double strand) [gadW promoter] | – | binds | – | – |
| GGTCGCTCCTTGCCTGAAGTCATCCTTCAATACGTTAAGGGCGAAATCATACCGTGGGGCAATGAGTTATTACGGGCGTTTATTGCGAAGGGAGGGTGACGAAATGCACAGAAAACAAAA (double strand) [aslB promoter] | no binding | – | no binding | binds |
| AATGATACTTGTCTGAAAAACAGATTTACGACGATATAAAATAATAATACTTATATGTTCGCTGATTTTAAGCACCGAGACTATCCGGTCTTTTACCAAATAATGAAGAATAATCCCTCCCTGGAAGATAATTGTAAAAAACAACAGCATAAGAATTAATCTTAGGATAAATTTTTATTTATCATGGCCTTTTGAACGCTGAAAAGTAGCGCTCTGCAAAGTAAACCCCGCTATAGTTATGCTATGCATTTGTCTTTAATGATATCTCGTCATTATATTAACAGGATGAAATTATCATTA (double strand) [yhiM promoter] | – | binds | – | binds |
| GAATAAAAATAGATTTTATGTACTTTTAAAACAATGCACTATATTATGGGGTGATGGATATTCATGTCACGCCCCAAAATTAACTGAGTTCACCTAAACAGAAAGGATATAAACATCAGACAGGTTTACGTTACTATCAGGCATATCACCTCAGAATCAGATGAAAACTATAAAGAAATATCTATTATGGTTTTAA (double strand) [slp-dctR promoter] | no binding | binds | – | – |
| CGCATAATTTCCAGCAATCTTTGTTTATTTGCAATTATTTTTGTTGGGCTTTTTGTAGGTTATTTGTACAGCAAAATGGCGCTTGTACATCTATTTCCCCCAATGCAGGATGATAAATATCACGGGAGAATAGAGAATCATCAATCAGGTAAGAGTCTGGAATTTCACACTGTACCCTTTATACTGCCCT (double strand) [rcsD promoter] | – | binds | – | – |
| ATCCTGCACGCTCCTAATTCTTTGACCGAGCTAGTTATGGCGCGGAGTATTAGTTACGCTTGACAGAGTGTAAAACAAAACATTTAAATCATAACGACAAATAATTTTGCGGAGAGCACTGTGGATACGGAATTGTTAAAAACTTTCCTGGAAGTTAGCCGAACGCGTCACTTTGGTCGAGCGGCTGAATCGCTCTATCTGACCCAGTCAGCAGTGAGCTTTCGAATCAGACAACTGGAAAATCAACTGGGTGTGAACCTT (double strand) [hdfR promoter] | – | binds | – | – |
| TTGCTCATGCAAAGACTAACAATCCATTAAAATAGTAAGTGCTCCGGACAATTTTCCATGGATTATTTTCTGAACATTTTTCTTTGGCAAAGATGATGAATTTTGATGGTAAGGAATATTACTTCTGGTTCTCAGTAAAATCCTTTCGTAATACTATGTAATCAAGAAGTTTATGGCTGGTAAAAATAACGTCTTGCATTCACCAATAATATGTAAATAAACCCATCTATAGATGGTAAAAATAGGTTGTGGCAATTATCATTGCATCATTCCCTTTTCGAATG (double strand) [cadC promoter] | – | binds | – | – |
| TTATATATCCATGTTGGCGATAATCCCTTTGTATGTACTGTGCATCATCGCTATTACAAATCCTAATAATTCATTTCCACACAGGATAAGTAGATGAAGAAAAAAATTGAATC (double strand) [ydeP promoter] | – | binds | – | – |

— article PMC2984483
